Test results as given in patent US20240294644A1 (BLUEFIN BIOMEDICINE, published 2024).
Where a chain is given by its changes, count along the chain named.

T1: recombinant human VTCN1-his protein (human, UniProt Q7Z7D3 25-259, limits assumed)
T1 construct: also called human VTCN1 protein; recombinant VTCN1
T1 sequence: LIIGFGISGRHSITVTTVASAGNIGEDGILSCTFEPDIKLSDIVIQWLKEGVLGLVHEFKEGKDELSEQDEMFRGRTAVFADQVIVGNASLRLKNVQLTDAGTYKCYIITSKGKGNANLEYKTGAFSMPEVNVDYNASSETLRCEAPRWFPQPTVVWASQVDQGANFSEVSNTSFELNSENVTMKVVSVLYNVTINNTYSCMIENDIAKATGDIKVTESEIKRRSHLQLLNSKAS

T2: cynomolgus monkey VTCN1 protein (cynomolgus monkey, UniProt A0A2K5U6P5 25-259)
T2 construct: The construct and its tag are not described; also called cyno VTCN1
T2 sequence: T1 sequence with L53I

T3: human VTCN1 expressed on cells (293-VTCN1 cells; SKBR3, MX-1 and ZR-75-1 cells that express it naturally) (human, UniProt Q7Z7D3 25-282)
T3 construct: The cDNA was bought from Origene
T3 sequence: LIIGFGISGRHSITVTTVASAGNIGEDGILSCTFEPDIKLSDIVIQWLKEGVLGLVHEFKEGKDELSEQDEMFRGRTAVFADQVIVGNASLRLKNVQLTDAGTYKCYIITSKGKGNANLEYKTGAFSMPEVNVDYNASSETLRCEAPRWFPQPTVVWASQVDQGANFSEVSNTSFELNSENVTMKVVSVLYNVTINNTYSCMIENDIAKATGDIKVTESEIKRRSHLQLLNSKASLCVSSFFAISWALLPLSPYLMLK

T4: mouse VTCN1 expressed on 293 cells (mouse, UniProt Q7TSP5 25-257)
T4 construct: whole, on cells
T4 sequence (looked up): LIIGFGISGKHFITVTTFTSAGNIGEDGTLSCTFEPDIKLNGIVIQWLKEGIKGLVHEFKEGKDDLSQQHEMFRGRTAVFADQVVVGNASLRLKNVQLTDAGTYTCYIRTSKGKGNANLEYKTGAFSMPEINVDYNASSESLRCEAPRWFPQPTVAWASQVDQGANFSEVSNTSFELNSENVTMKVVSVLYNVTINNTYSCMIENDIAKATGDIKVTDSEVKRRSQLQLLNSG

T5: mouse VTCN1 protein (mouse, UniProt Q7TSP5 25-257, limits assumed)
T5 construct: The construct and its tag are not described
T5 sequence (looked up): T4 sequence (looked up)

B1: 3D11 (antibody, V domains shown)
VH: QVQLQQPGAELVKPGASVKLSCKASGYSFTSYWMNWVKQRPGRGLEWIGRIHPSDSETHYNQNFKSKATLTVDKSSSTAYIQLNSLTSEDSAVYYCARPYYFYGSSPYAMDYWGQGASVTVSS
VL: DVVMTQTPLSLPVSLGDQASISCRSSQSIVHSNGNTYLEWYLQKPGQSPKLLIYKVSNRFSGVPDRFSGSGSGTDFTFKISRVEAEDLGVYYCFQGSHVPYTFGGGTKLEIK
notes: Recombinant mouse antibody made in CHO cells
B2: 3G10 (antibody, V domains shown)
VH: QIQLKESGPGLVQPSQSLSITCTVSGFSLTSYGVHWVRQSPGKGLEWLGVIWSGGYTDYNSAFISRLSISKDNSKSQVFFKMNSLQADDTAIYYCARDITTIVEGFAYWGQGTLVTVSA
VL: IIVMTQSPKSMSMSVGERITLNCKASENVGTYVSWYQQKPEQSPKLLIYGASNRYTGVPDHFTGSGSATDFTLTISSVQAEDLADYHCGQTYSYPFTFGSGTKLEIK
notes: as for B1
B3: 7F10 (antibody, V domains shown)
VH: B2 VH with I2V, K5Q, E6Q, V34I, G54S, Y56S, S61A, A87S, Y93H, V103A
VL: B2 VL with I1N, I19V, N22S, H61R, T91S
notes: as for B1
B4: 6D9 (antibody, mouse IgG2a, V domains shown)
VH: QIQLQQSGPGLVQPSQSLSITCTVSGFSLTSYGVQWIRQSPGKGLEWLGVIWSSGSTDYNAAFLSRLSFSKDNSKSQVFFQMNSLQADDSAIYYCARDVTTIVEGFAHWGQGTLVTVSA
VL: B2 VL with I1N, I19V, N22S, N28K, H61R, A80V
notes: also called 6D9-mIgG2a; murine VTCN1 antibody 6D9
B5: 5A12 (antibody, V domains shown)
VH: B2 VH with I2V, K5Q, E6Q, H35Q, G54S, Y56S, S61A, S70N, A87P
VL: B2 VL with I19V, N22S, H61R, T91S
notes: as for B1
B6: 6E2 (antibody, V domains shown)
VH: B2 VH with K5Q, H35Q, Y56S, S61A, T100S, Y108H, A119S
VL: B2 VL with I1N, I19V, N22S, N28K, H61R, T91S, S93R
notes: as for B1
B7: 4C6 (antibody, V domains shown)
VH: B2 VH with I2M, K5Q, V34I, G54S, Y56S, S61A, A87S, Y93H, V103A, A119S
VL: B2 VL with I1N, I19V, N22S, H61R, T91S
notes: as for B1
B8: 10D1 (antibody, V domains shown)
VH: QVQLQESGPELVKPGASVKLSCKASGYIFTDYTIHWLKQSPGQGLEWIGWIYPGSGHTHYNDKFKGKATMTADKSSTTAYMQLSSLTSEDSAVFFCARGGESITTVFPLAYWGQGTLVTVSA
VL: DIVMSQSPSSLAVSVGEKVTMSCKSSQSLLYSSDQKNYLAWYQQKPGQSPKLLIYWASTWESGVPDRFIGSGSGTDFTLTVSSVKAEDLAVYYCHQYYSYPPTFGAGTKLEIK
notes: as for B1
B9: 7G7_44C6 (antibody, V domains shown)
VH: QVQLQESGPGLVKPSETLSLTCTVSGGSISHYYWSWIRQPPGKGLEWIGYIYYSGPTNYNPSLKSRVTISVDTSKNQFSLKLSSVTAADTAVYYCARTYYYGSGSFPDAFDIWGQGTMVTVSS
VL: KIVLTQSPATLSLSPGERATLSCRASQSVSSYLAWYQQTPGQAPRLLIYDASNRATGIPARFSVSGSGTDFTLTISSLEPEDFAVYYCQQRSSWPLTFGGGTKLEIK
notes: Fully human antibody
B10: 13H9_44D2 (antibody, V domains shown)
VH: QVQLQESGPGLVKPSETLSLTCTVSGGSISSYYWSWIRQPPGKGLEWIGYIYYSGSTNNNPSLKSRVTISVDTSKNQFSLKLISVTAADTAVYYCARVYNNYDWGFDYWGQGTLVTVSS
VL: EIVMTQSPATLSVSPGERATLSCRASQSVSSNLAWYQQKPGQAPRLLIYGASTRATGIPARFSGSGSGTEFTLTIRSLQSEDFAVYYCQQYHNWPLTFGGGTKLEIK
notes: Fully human antibody
B11: 1F8 (antibody, V domains shown)
VH: B2 VH with I2M, H35Q, S40F, P41S, G54S, Y56S, S61A, A87P, I92M
VL: IIVMTQSPKSMSMSVGERVTLSCKASENVGTYVSWYQQKPEQSPKLLIYGASNRYTGVPDRFTGSGSATDFTLTISSVQAEDLADYHCGQSYSYPFTFGSGTKLEIKR
notes: Recombinant mouse antibody made in CHO cells; also called 1F8C6
B12: 8G3 (antibody, V domains shown)
VH: B2 VH with K5Q, G54S, Y56S, S61A, K75R, A87P, G110A
VL: B2 VL with I1N, I2V, I19V, N22I, H61R, T97A
notes: as for B1
B13: 7G9 (antibody, V domains shown)
VH: QVQMQESGPGLVQPSQSLSITCTVSGFSLTSYGVQWVRQSPGKGLQWLGVIWSSGSTDYNAAVISRLSISKDTSKSQVFFKMNSLQPDDTAIYYCARDITTIVEGFAYWGQGTLVTVSS
VL: B2 VL with I19V, N22S, H61R, T91S
notes: as for B1
B14: 9H12 (antibody, V domains shown)
VH: B2 VH with K5Q, H35Q, Y56S, S61A, Y108H
VL: B2 VL with I1N, I19V, N22S, N28K, H61R, T91S
notes: as for B1
B15: 9H7 (antibody, V domains shown)
VH: QVQLQESGPELVKPGASVKLSCKASGYSFTDYTMHWVKQSPGQGLEWIGWIYPGSGNTMYNDKFKGEATMTADKSSSTTYMQLSSLTSEDSAVYFCARGGDSIITVFPFTYWGQGTLVTVSA
VL: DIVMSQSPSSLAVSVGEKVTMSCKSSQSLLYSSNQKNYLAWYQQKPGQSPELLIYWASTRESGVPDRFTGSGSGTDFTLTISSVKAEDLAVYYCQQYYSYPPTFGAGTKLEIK
notes: as for B1
B16: hu6D9_57A3 (antibody, V domains shown)
VH: QVQLVESGGGVVQPGRSLRLSCAVSGFSLTSYGVQWVRQAPGKGLEWLGVIWSSGSTDYNAAFLSRLTISKDNSKNTVYFQMNSLRAEDTAVYYCARDVTTIVEGFAHWGQGTLVTVSS
VL: DIQMTQSPSSLSASVGDRVTITCKASEKVGTYVSWYQQKPGKAPKLLIYGASNRYTGVPSRFSGSGSGTDFTLTISSLQPEDFATYYCGQTYSYPFTFGQGTKLEIK
notes: Humanized 6D9
B17: hu6D9_57A4 (antibody, V domains shown)
VH: B16 VH with G9P, G49A, N76S
VL: B16 VL
notes: Humanized 6D9
B18: hu6D9_66B1 (antibody, V domains shown)
VH: B16 VH with S28T, L29F, T30S
VL: B16 VL
notes: Humanized 6D9
B19: hu6D9_66C2 (antibody, V domains shown)
VH: B16 VH with Q1E, V11L, R16G, N73T
VL: B16 VL with G66R, L104V
notes: Humanized 6D9

Each binder was assayed against T1, recombinant human VTCN1-his protein (assay: BLI (OCTET Red), antibody on Protein A biosensor, recombinant VTCN1-his in solution).

| Kd | Binder |
| --- | --- |
| 6 nM | B1 |
| 12 nM | B2 |
| 5 nM | B3 |
| 2 nM | B4 |
| 4 nM | B5 |
| 8 nM | B6 |
| 14 nM | B7 |
| 4 nM | B8 |

The binders below were run against T2, cynomolgus monkey VTCN1 protein (assay: BLI (OCTET Red), antibody on Protein A biosensor, cyno VTCN1).

| Kd | Binder |
| --- | --- |
| 2 nM | B1 |
| 14 nM | B2 |
| 12 nM | B3 |
| 7 nM | B4 |
| 12 nM | B5 |
| 19 nM | B6 |
| 16 nM | B7 |
| 1 nM | B8 |

What follows are binders tested against T3, human VTCN1 expressed on cells … (assay: flow cytometry, antibody titration on SKBR3 cells (endogenous VTCN1)).

| EC50 | Binder |
| --- | --- |
| 36.8 nM | B9 |
| 1.9 nM | B10 |

Each binder was assayed against T3, human VTCN1 expressed on cells … (assay: flow cytometry on live 293-VTCN1 and MX-1 cells, 0.05-10 ug/ml).

| binding result | Binder |
| --- | --- |
| binds | B11 |
| binds | B12 |
| binds | B13 |
| binds | B14 |
| binds | B15 |

Each binder was assayed against T4, mouse VTCN1 expressed on 293 cells (assay: flow cytometry, antibody titration on 293-muVTCN1 cells).

| EC50 | Binder |
| --- | --- |
| 45 nM | B9 |
| 1.8 nM | B10 |

Each binder was assayed against T5, mouse VTCN1 protein (assay: BLI (OCTET), mouse VTCN1 protein).

| Kd | Binder |
| --- | --- |
| 268 nM | B10 |

These binders were tested against T1, recombinant human VTCN1-his protein (assay: BLI (OCTET), human VTCN1 protein).

| Kd | Binder |
| --- | --- |
| 28 nM | B16 |
| 36 nM | B17 |
| 27 nM | B18 |
| 44 nM | B19 |

Target: T1, recombinant human VTCN1-his protein
Assay: BLI (OCTET), human VTCN1 protein
Remark: another data set of the same source

| Kd | Binder |
| --- | --- |
| 192 nM | B9 |
| 128 nM | B10 |

What follows are binders tested against T3, human VTCN1 expressed on cells … (assay: flow cytometry, antibody titration on 293-huVTCN1 cells).

| EC50 | Binder |
| --- | --- |
| 2.2 nM | B9 |
| 1.2 nM | B10 |
